Measurements reported in patent publication US20240228604A1 (ALCHEMAB THERAPEUTICS, published 2024).

Experiments:
Assay in all cases: Retrogenix cell microarray, fixed HEK293 cells
[1] = target: T1, full-length human UNC5A on fixed HEK293 cells (Retrogenix panel) (human, UniProt Q6ZN44 26-842)
T1 construct: whole, on cells
T1 sequence (looked up): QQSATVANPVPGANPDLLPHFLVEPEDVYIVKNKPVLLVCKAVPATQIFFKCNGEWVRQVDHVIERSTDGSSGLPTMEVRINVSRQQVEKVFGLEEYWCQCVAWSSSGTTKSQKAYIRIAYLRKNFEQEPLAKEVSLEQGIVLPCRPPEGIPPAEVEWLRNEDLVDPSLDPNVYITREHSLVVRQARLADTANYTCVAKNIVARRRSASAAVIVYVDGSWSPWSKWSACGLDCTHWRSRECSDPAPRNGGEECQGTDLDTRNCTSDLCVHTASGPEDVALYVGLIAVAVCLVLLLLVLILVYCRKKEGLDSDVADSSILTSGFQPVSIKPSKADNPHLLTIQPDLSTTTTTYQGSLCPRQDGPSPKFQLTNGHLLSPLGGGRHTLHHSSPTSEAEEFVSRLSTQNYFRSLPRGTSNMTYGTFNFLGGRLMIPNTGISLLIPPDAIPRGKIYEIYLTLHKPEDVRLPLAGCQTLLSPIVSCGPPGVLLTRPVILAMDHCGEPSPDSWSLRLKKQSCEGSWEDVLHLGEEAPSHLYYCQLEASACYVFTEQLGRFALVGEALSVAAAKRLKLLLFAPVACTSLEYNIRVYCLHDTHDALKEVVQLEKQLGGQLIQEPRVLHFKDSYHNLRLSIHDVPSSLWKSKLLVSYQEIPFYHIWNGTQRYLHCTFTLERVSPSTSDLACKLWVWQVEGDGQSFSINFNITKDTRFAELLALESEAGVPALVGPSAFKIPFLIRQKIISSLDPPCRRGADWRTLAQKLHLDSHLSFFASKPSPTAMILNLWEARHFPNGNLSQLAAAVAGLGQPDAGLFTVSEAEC

[2] = target: T2, full-length human UNC5B on fixed HEK293 cells (Retrogenix panel) (human, UniProt Q8IZJ1 27-945)
T2 construct: whole, on cells

[3] = target: T3, full-length human NEO1 on fixed HEK293 cells (Retrogenix panel) (human, UniProt Q92859 34-1461)
T3 construct: whole, on cells; also called neogenin
T3 sequence (looked up): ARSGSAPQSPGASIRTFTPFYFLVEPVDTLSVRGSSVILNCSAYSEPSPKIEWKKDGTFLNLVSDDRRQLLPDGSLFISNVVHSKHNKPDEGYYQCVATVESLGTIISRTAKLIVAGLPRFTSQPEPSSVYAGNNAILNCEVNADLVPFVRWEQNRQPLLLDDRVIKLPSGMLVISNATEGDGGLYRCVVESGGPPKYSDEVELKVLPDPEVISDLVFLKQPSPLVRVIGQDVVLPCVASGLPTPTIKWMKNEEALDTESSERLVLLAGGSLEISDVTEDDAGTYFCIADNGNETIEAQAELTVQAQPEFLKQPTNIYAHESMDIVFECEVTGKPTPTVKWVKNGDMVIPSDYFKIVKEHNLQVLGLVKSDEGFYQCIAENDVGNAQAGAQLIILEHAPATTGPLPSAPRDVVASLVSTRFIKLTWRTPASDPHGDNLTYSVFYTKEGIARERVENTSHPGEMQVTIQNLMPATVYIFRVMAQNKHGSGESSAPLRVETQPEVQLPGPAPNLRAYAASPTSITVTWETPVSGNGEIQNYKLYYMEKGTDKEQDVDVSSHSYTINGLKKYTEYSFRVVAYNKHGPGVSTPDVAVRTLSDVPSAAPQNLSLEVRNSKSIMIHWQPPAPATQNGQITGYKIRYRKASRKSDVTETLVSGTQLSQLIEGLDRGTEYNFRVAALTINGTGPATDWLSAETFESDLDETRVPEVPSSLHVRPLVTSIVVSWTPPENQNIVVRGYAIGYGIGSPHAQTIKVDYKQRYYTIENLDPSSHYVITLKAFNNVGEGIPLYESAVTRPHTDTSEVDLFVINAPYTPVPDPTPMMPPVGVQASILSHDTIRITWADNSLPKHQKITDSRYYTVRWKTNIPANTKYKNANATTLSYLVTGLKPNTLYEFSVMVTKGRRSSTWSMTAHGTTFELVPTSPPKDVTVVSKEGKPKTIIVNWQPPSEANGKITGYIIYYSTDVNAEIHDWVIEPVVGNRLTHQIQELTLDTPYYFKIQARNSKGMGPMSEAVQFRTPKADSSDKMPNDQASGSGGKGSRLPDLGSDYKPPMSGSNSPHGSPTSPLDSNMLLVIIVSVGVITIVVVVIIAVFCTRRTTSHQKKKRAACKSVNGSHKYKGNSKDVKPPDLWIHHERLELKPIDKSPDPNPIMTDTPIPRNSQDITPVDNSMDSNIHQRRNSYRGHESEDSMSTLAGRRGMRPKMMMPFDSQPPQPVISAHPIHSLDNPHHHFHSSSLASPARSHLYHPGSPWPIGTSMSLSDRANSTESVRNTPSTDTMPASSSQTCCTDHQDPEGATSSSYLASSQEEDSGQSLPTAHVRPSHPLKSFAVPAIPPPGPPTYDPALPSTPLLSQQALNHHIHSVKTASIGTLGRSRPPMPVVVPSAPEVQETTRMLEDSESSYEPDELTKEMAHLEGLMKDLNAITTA

[4] = target: T4, full-length human DSCAM on fixed HEK293 cells (Retrogenix panel) (human, UniProt O60469 18-2012)
T4 construct: whole, on cells
T4 sequence (O60469 18-2012): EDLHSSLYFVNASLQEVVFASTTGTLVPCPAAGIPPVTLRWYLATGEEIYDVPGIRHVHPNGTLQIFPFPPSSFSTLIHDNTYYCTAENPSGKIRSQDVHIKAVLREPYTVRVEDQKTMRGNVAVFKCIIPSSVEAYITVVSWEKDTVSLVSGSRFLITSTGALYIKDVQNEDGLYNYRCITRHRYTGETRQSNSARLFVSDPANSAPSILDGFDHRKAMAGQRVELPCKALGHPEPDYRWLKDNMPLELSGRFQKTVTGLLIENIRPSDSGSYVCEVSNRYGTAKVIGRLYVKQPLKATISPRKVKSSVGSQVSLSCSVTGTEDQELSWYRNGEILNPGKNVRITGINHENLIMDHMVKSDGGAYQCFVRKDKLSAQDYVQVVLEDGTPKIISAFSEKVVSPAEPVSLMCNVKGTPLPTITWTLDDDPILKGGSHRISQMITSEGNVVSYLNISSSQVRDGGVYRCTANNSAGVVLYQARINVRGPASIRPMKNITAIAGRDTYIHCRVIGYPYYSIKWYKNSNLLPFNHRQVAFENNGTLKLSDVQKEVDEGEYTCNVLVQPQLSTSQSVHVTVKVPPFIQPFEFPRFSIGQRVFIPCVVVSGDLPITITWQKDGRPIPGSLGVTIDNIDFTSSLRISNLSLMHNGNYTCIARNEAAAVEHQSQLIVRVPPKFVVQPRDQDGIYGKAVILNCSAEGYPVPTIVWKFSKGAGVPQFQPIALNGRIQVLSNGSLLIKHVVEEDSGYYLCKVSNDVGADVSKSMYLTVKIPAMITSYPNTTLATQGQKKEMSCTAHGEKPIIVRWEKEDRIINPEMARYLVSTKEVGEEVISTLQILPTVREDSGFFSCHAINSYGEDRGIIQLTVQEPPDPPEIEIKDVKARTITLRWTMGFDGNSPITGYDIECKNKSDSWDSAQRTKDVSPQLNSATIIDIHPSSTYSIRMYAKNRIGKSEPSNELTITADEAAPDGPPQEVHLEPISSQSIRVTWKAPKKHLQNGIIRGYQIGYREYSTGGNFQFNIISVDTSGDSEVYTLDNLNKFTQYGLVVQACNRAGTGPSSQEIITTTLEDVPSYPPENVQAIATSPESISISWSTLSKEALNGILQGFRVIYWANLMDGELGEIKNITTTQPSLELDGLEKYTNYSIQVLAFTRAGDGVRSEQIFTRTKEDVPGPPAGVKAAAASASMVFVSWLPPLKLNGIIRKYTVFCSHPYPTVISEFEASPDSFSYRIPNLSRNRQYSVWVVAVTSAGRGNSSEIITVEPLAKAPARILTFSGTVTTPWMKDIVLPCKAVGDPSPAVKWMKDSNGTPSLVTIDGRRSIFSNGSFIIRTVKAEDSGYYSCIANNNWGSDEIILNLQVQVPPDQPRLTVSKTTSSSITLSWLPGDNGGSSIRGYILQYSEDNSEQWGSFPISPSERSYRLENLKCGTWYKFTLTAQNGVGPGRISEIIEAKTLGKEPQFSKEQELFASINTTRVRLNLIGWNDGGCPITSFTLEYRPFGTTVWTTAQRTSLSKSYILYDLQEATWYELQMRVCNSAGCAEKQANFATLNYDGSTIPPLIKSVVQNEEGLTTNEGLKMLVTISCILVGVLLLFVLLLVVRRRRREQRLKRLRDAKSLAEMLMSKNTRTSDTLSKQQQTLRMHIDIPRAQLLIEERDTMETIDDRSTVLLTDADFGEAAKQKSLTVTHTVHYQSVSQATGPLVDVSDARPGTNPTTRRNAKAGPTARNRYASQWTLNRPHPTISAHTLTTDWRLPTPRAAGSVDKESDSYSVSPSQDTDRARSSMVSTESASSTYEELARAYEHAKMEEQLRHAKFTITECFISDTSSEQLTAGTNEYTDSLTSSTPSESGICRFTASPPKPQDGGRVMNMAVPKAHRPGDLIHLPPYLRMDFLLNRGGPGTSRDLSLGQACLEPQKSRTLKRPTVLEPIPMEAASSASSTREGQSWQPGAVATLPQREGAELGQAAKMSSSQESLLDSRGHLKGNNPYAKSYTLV

Measured: binding result

B1: ATL_0006178 (antibody, IgG1, V domains shown)
VH: QVQLQESGPGLVKPSETLSLTCTVSGGSISSYFWSWIRQPPGKGLEWIGYIHYSGTTNQNPSLKSRVTISVDKSKNQFSLKLSSVTAADTAVYYCARGRGMATLPFDYWGQGTLVTVSS
VL: not shown
notes: Combination variant of ATL_5262 (T82K, Q67 kept, N58Y); also called ATL_6178; ATL6178
no binding: [1] | [2] | [3] | [4]
